This is an account of results in the supplement of paper PMC10567573.

± gives the standard deviation.

This data set in a line: protein stability index of a GFP-peptide fusion (GPS, HEK-293T) (PSI 1-6); higher = more stable. The following applies: c terminus: a fixed tail appended.
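Further: 24-mer peptide tiles fused after GFP, lentivirally expressed, FACS-sorted into six equal bins by GFP/DsRed ratio, decoded by Illumina sequencing, PSI is the read-weighted mean bin number.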

Turning to NGWTCLHWACKRNHGQVVSYLLKS [ANKRD40], the protein stability index by setting is: (treatment: DMSO) 2.72 ± 0.46; (treatment: MLN4924 1 uM, 8 h) 2.29 ± 0.43.
In turn, NILLDKHRMVVKIGDFGISKILSS [NEK8] showed a protein stability index (treatment: DMSO) of 2.19 ± 0.15 and a protein stability index (treatment: MLN4924 1 uM, 8 h) of 2.09 ± 0.17.
Take NIRPADSRWVRDPRYREDPCKQCK [FBXO34]: the protein stability index by setting is: (treatment: DMSO) 4.13 ± 0.36; (treatment: MLN4924 1 uM, 8 h) 4.28 ± 0.13.
Take NKTWREQYLRLPDAPEQRLRVMTT [ELOA2]: the protein stability index came out at 3.26 ± 0.31 (treatment: DMSO) and 3.19 ± 0.48 (treatment: MLN4924 1 uM, 8 h).
Turning to NLFVPLNTNPKEVQEMRNKIREQN [ADD1], the protein stability index (treatment: DMSO) came to 4.29 ± 0.18 and the protein stability index (treatment: MLN4924 1 uM, 8 h) came to 4.18 ± 0.24.
As for NLSKTQNMERFGEDNLEDDDVEMK [CDC14A], the protein stability index runs as follows: (treatment: DMSO) 5.4 ± 0.061; (treatment: MLN4924 1 uM, 8 h) 5.4 ± 0.12.
NLSRDVTEALILQLFSQIGPCKNC [TIA1] returned a protein stability index (treatment: DMSO) of 2.48 ± 0.42 and a protein stability index (treatment: MLN4924 1 uM, 8 h) of 2.91 ± 0.6.
With NMDPAGLDDEDDTSIGMPSLMYRS [RETREG3], the protein stability index is 4.87 ± 0.15 (treatment: DMSO) and 4.91 ± 0.1 (treatment: MLN4924 1 uM, 8 h).
In the case of NNLLSAPPPDVTQLTPPSHDLTDN [ANKRD17], the protein stability index by setting is: (treatment: DMSO) 5.12 ± 0.28; (treatment: MLN4924 1 uM, 8 h) 5.18 ± 0.18.
In the case of NPYYDPLQWKSSHFERRDNMNDNF [CHGB], the protein stability index runs as follows: (treatment: DMSO) 3.27 ± 0.1; (treatment: MLN4924 1 uM, 8 h) 3.14 ± 0.23.
For NQHGIILKYIGMAKREINKLLKQK [ARL6IP1] the same measures were 1.93 ± 0.39 and 2.16 ± 0.32.
For NRIKGCHDHLTLSVSRPEGRSWPS [PDLIM4] the same measures were 2.87 ± 0.25 and 3.02 ± 0.18.
For NRNQRIVQLIQDTRIHILPSMNPD [CPN1], the protein stability index was 2.95 ± 0.12 (treatment: DMSO) and 3 ± 0.25 (treatment: MLN4924 1 uM, 8 h).
As for NSAMPFKILYDDGKMVEEVDGRAT [PTPRD], the protein stability index (treatment: DMSO) came to 4.69 ± 0.32 and the protein stability index (treatment: MLN4924 1 uM, 8 h) worked out at 4.62 ± 0.13.
As to NSEEEEDDDDEEEEVSEVESFILD [ANKRD17], the protein stability index turned out to be 5.06 ± 0.33 (treatment: DMSO) and 4.94 ± 0.23 (treatment: MLN4924 1 uM, 8 h).
For NSNTPVDDFHTNDVCSFPNALVTK [FEM1B], the protein stability index is, setting by setting: (treatment: DMSO) 4.68 ± 0.26; (treatment: MLN4924 1 uM, 8 h) 4.5 ± 0.18.
For NSTGSGRGKKLMVLTEPILIETYT [TPRG1] the same measures were 2.57 ± 0.18 and 2.75 ± 0.24.
For NTELQDVQRIMVANIEEVLQRGEA [SEC22B] the same measures were 4.7 ± 0.36 and 4.71 ± 0.25.
Take NTKNEISELTRLIQRIRSEIENVK [KRT71]: the protein stability index reads like this: (treatment: DMSO) 2.83 ± 0.14; (treatment: MLN4924 1 uM, 8 h) 2.78 ± 0.24.
On to NTKRAIHTLAVMNDRLYAIGGNHL [KLHL14], for which the protein stability index is 2.2 ± 0.19 (treatment: DMSO) and 2.3 ± 0.14 (treatment: MLN4924 1 uM, 8 h).
With NTSIRVADFGSATFDHEHHTTIVA [CLK3], the protein stability index was 3.52 ± 0.45 (treatment: DMSO) and 3.27 ± 0.28 (treatment: MLN4924 1 uM, 8 h).
For NTVVSTYVTTNVSLIPPRSEQLVN [TMEM106C] the same measures were 3.04 ± 0.3 and 3.19 ± 0.24.
For the sequence NVAASNAKLALFYDWLFFSPDKDS [INTS3], the protein stability index was found to be 2.39 ± 0.46 (treatment: DMSO) and 2.55 ± 0.55 (treatment: MLN4924 1 uM, 8 h).
In the case of NVCDDYDVTCNEFFFDRNPGAFGT [KCNG1], the protein stability index by setting is: (treatment: DMSO) 3.44 ± 0.25; (treatment: MLN4924 1 uM, 8 h) 3.65 ± 0.12.
NYPYDKSFEHRVRGVRRTASTPTP [CPN1]: the protein stability index is 4.05 ± 0.4 (treatment: DMSO) and 4.14 ± 0.23 (treatment: MLN4924 1 uM, 8 h).
As to PAGERRIYRHRIPSTICFGQGAAR [ZNF511], the protein stability index reads like this: (treatment: DMSO) 2.89 ± 0.5; (treatment: MLN4924 1 uM, 8 h) 3.22 ± 0.45.
For the sequence PCCSSSPEEPLNGESYESCCPTSR [FEM1A], the protein stability index runs as follows: (treatment: DMSO) 4.28 ± 0.22; (treatment: MLN4924 1 uM, 8 h) 4.64 ± 0.31.
With PCKQCKKKYVKGDVSLCRWHPKPY [FBXO34], the protein stability index (treatment: DMSO) stood at 3.09 ± 0.34 and the protein stability index (treatment: MLN4924 1 uM, 8 h) came out at 3.07 ± 0.51.
As to PCSEFMEPSSDPSLLGEPCAGPGF [SPAG8], the protein stability index runs as follows: (treatment: DMSO) 4.15 ± 0.25; (treatment: MLN4924 1 uM, 8 h) 4.44 ± 0.28.
Consider PDANTWTALPPMNEARHNFGIVEI [GAN], for which the protein stability index was determined as 2.42 ± 0.34 (treatment: DMSO) and 2.51 ± 0.43 (treatment: MLN4924 1 uM, 8 h).
Consider PDFILKVVIDKHPVRFFVHKRPHV [CTDNEP1], for which the protein stability index was 2.46 ± 0.56 (treatment: DMSO) and 2.44 ± 0.76 (treatment: MLN4924 1 uM, 8 h).
On to PDGLRSGDGVPPRSLQDGTREGFG [LCOR], for which the protein stability index reads like this: (treatment: DMSO) 4.95 ± 0.11; (treatment: MLN4924 1 uM, 8 h) 5.15 ± 0.16.
With PDPSHSPSDKVGRADAHLGSSSVA [TOR1AIP2], the protein stability index by setting is: (treatment: DMSO) 4.98 ± 0.37; (treatment: MLN4924 1 uM, 8 h) 4.68 ± 0.95.
Consider PEDEVIVNQYVIRPGPSASAASSA [RNF208], for which the protein stability index is 4.61 ± 0.12 (treatment: DMSO) and 4.62 ± 0.16 (treatment: MLN4924 1 uM, 8 h).
The matching figures for PEERLEKQNEKLNNQEEETEFKEL [CCDC89]: 5.67 ± 0.11 and 5.48 ± 0.29.
On to PEIAQNFSAPDPPRPRPVSLSLRL [SMTNL2], for which the protein stability index came out at 2.91 ± 0.27 (treatment: DMSO) and 3.04 ± 0.22 (treatment: MLN4924 1 uM, 8 h).
